From patent publication US20070184488

Key:
[1] = molecular target: T1, P1′ peptide library component with P1′=Pro
T1 chain: EVNLPAEF

[2] = molecular target: T2, EVNFAVEF (SEQ ID NO: 261)
T2 chain: EVNFAVEF

[3] = molecular target: T3, EVNLDAEF, Swedish mutant APP 8-mer peptide (SEQ ID NO: 257)
T3 chain: EVNLDAEF

[4] = molecular target: T4, P1′ peptide library component with P1′=Gly
T4 chain: EVNLGAEF

[5] = molecular target: T5, EVNFEAEF (SEQ ID NO: 260)
T5 chain: EVNFEAEF

[6] = molecular target: T6, P1′ peptide library component with P1′=Glu
T6 chain: EVNLEAEF

[7] = molecular target: T7, EVNFAAEF (SEQ ID NO: 259)
T7 chain: EVNFAAEF

[8] = molecular target: T8, EVNLAAEF (SEQ ID NO: 258)
T8 chain: EVNLAAEF

[9] = molecular target: T9, EVNFEVEF (SEQ ID NO: 262)
T9 chain: EVNFEVEF

B1: β-secretase (protein)
chain: ETDEEPEEPGRRGSFVEMVDNLRGKSGQGYYVEMTVGSPPQTLNILVDTGSSNFAVGAAPHPFLHRYYQRQLSSTYRDLRKGVYVPYTQGKWEGELGTDLVSIPHGPNVTVRANIAAITESDKFFINGSNWEGILGLAYAEIARPDDSLEPFFDSLVKQTHVPNLFSLQLCGAGFPLNQSEVLASVGGSMIIGGIDHSLYTGSLWYTPIRREWYYEVIIVRVEINGQDLKMDCKEYNYDKSIVDSGTTNLRLPKKVFEAAVKSIKAASSTEKFPDGFWLGEQLVCWQAGTTPWNIFPVISLYLMGEVTNQSFRITILPQQYLRPVEDVATSQDDCYKFAISQSSTGTVMGAVIMEGFYVVFDRARKRIGFAVSACHVHDEFRTAAVEGPFVTLDMEDCGYNIPQTDESTLMTIAY
[1]
  depletion of full length peptide substrate (LC/MS): two peptides that were not cleaved by β-secretase (P1′=Gly and P1′=Pro)
[2]
  Relative rates of hydrolysis (relative to SEQ ID NO: 257): 30
[3]
  Relative rates of hydrolysis (relative to SEQ ID NO: 257): 1
  depletion of full length peptide substrate (LC/MS): one intermediate sequence (P1′=Asp-the residue normally present in Swedish mutant APP)
  formation of C-terminal cleavage products (LC/MS): the P1′=Asp product shows formation consistent with this residue being less conducive to β-secretase hydrolysis than either Glu or Ala
[4]
  depletion of full length peptide substrate (LC/MS): two peptides that were not cleaved by β-secretase (P1′=Gly and P1′=Pro)
[5]
  Relative rates of hydrolysis (relative to SEQ ID NO: 257): 17
[6]
  depletion of full length peptide substrate (LC/MS): most rapidly hydrolyzed by β-secretase (P1′=Glu and P1′=Ala)
  formation of C-terminal cleavage products (LC/MS): more rapid and comparable rates of formation of the products represented by P1′=Ala and P1′=Glu
[7]
  Relative rates of hydrolysis (relative to SEQ ID NO: 257): 17
[8]
  Relative rates of hydrolysis (relative to SEQ ID NO: 257): 10
  depletion of full length peptide substrate (LC/MS): most rapidly hydrolyzed by β-secretase (P1′=Glu and P1′=Ala)
  formation of C-terminal cleavage products (LC/MS): more rapid and comparable rates of formation of the products represented by P1′=Ala and P1′=Glu
[9]
  Relative rates of hydrolysis (relative to SEQ ID NO: 257): 60
